These results are taken from paper PMC9067375, “Biochemical and crystallization analysis of the CENP-SX–DNA complex” (Acta Crystallographica. Section F, Structural Biology …, 2022).

The experiment has as its target T1, CENP-S (MHF1), chicken, full-length (Gallus gallus).
T1 construct: CENP-S (MHF1), Gallus gallus, from cDNA; called full-length CENP-S; source: E. coli One Shot BL21(DE3) pLysS RARE2; prepared according to previous reports
T1 chain: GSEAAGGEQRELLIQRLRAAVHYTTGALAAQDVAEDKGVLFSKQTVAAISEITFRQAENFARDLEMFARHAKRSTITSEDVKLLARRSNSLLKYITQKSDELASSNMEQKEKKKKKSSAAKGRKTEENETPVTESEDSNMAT
Description: SDS-PAGE of the contents of crystals; crystals grown from the FANCM–CENP-SX pentamer (50 µM) with dsDNA in about 30% 1,4-dioxane, 293 K; crystals, solution and film analysed by 15% SDS–PAGE, Coomassie Brilliant Blue. The note with it: both partners purified.

B1: CENP-X (MHF2), chicken (natural protein, Gallus gallus)
chain: GYEEREGGFRKETVERLLRLHFRDGRTRVNGDALLLMAELLKVFVREAAARAARQAQAEDLEKVDIEHVEKVLPQLLLDFV
notes: CENP-X (MHF2), Gallus gallus, from cDNA; source: E. coli One Shot BL21(DE3) pLysS RARE2; prepared according to previous reports
In the case of B1, the binding result is “binds”.
